Data: paper PMC9484220

How the values were obtained:
[1] = target: AQP2 protein (eukaryotic expression, purified; Flag-Mcherry tag excised) (UniProt P41181); experiment: SPR; BIAcore T200; AQP2 immobilised on CM5 chip by amine coupling (10 mM NaAc, pH 4.0); MIAC peptide injected; HBS-EP buffer; equilibrium Req values of 5 concentrations fitted to 1:1 binding
[2] = target: chemosynthetic peptide MIAC labeled by CY5; experiment: MST; CY5-labeled MIAC with AQP2 protein, incubated 5 min at room temperature, premium-coated capillaries, Monolith NT.115

| Molecule | Kd [1] [µM] | Kd [2] [µM] |
| --- | --- | --- |
| chemically synthesized MIAC polypeptide | 5.13 | – |
| AQP2 protein (eukaryotic expression, purified; Flag-Mcherry tag excised) (natural protein) MWELRSIAFSRAVFAEFLATLLFVFFGLGSALNWPQALPSVLQIAMAFGLGIGTLVQALGHISGAHINPAVTVACLVGCHVSVLRAAFYVAAQLLGAVAGAALLHEITPADIRGDLAVNALSNSTTAGQAVTVELFLTLQLVLCIFASTDERRGENPGTPALSIGFSVALGHLLGIHYTGCSMNPARSLAPAVVTGKFDDHWVFWIGPLVGAILGSLLYNYVLFPPAKSLSERLAVLKGLEPDTDWEEREVRRRQSVELHSPQSLPRGTKA | – | 6.92 |
